Assays:
Conditions in all cases: 100 mM Na2HPO4 pH 8.0, 22 °C
hydratase kinetics [1] = substrate: CC#CC(=O)C(=O)O; assay: hydratase kinetics; format: biochemical, Bacillus subtilis
decarboxylase kinetics = substrate: O=CCC(=O)O; assay: decarboxylase kinetics; format: biochemical, Bacillus subtilis
hydratase kinetics [2] = substrate: CC#CC(=O)C(=O)O; assay: hydratase kinetics; format: biochemical, Paraburkholderia phymatum

| Protein | Km (hydratase kinetics [1]) [mM] | kcat (hydratase kinetics [1]) [s⁻¹] | kcat/Km (hydratase kinetics [1]) [M⁻¹ s⁻¹] | Km (decarboxylase kinetics) [mM] | kcat (decarboxylase kinetics) [s⁻¹] | kcat/Km (decarboxylase kinetics) [M⁻¹ s⁻¹] | Km (hydratase kinetics [2]) [mM] | kcat (hydratase kinetics [2]) [s⁻¹] | kcat/Km (hydratase kinetics [2]) [M⁻¹ s⁻¹] |
| --- | --- | --- | --- | --- | --- | --- | --- | --- | --- |
| YodA (Bacillus subtilis subsp. subtilis str. 168) (protein) PLLRFDVIEGRDEKSLQLLLDTAHQAMVEAFGVPERDRYQIVHQHPANELIIQDAGLGFQRTKDMVIISMTSKARTESQKEKLYALLAERLEKKCEISPDDLMVSITENGDADWSFGLGEAQFLNGKL | 0.27 ± 0.04 | 0.03 ± 0.001 | 111 | 6.8 ± 0.94 | 12.2 ± 1.1 | 1300 |  |  |  |
| Bp4401 (Paraburkholderia phymatum STM815) (protein) PLTRIALRAGKPAAYRQALTEGIQRALIAEFNVPEDDIFMVISEQDESNFVYNRNYLDIQRSDDFVLIQLTVTNSRTQEQKKALYKRIVDNLAEYPGVRREDVFINLVEVLKENWSFGNGIAQYAL |  |  |  |  |  |  | 5 ± 0.35 | 14 ± 0.1 | 2800 |

Source: PMC4258425
